From patent publication EP4755449A2 (CHUGAI SEIYAKU KABUSHIKI KAISHA, dated 2026)

T1: human latent myostatin (human, UniProt O14793 25-266; O14793 267-375)
T1 construct: non-covalent complex of two propeptides and the mature homodimer; also called human myostatin latent form
T1 sequence 1: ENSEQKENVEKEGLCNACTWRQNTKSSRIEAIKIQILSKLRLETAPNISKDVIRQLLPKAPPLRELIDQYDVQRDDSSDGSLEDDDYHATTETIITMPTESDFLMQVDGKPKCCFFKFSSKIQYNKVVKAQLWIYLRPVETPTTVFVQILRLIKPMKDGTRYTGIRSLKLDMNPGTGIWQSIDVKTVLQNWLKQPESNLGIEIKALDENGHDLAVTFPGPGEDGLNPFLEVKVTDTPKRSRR
T1 sequence 2: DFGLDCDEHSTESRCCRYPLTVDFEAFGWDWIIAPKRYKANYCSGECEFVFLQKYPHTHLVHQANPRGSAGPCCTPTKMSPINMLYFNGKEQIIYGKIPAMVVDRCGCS

T2: mouse latent myostatin (mouse, UniProt O08689 26-267; O08689 268-376)
T2 sequence 1: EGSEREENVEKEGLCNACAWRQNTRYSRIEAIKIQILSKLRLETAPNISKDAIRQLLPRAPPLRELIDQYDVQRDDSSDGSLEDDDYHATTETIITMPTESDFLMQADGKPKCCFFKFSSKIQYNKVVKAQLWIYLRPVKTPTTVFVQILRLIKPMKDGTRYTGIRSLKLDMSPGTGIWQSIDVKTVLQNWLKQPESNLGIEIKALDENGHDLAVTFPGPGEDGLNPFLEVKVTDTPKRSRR
T2 sequence 2: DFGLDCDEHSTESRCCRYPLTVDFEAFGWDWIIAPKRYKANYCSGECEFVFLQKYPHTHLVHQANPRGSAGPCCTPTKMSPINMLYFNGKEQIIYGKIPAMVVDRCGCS

T3: cynomolgus monkey latent myostatin (cynomolgus monkey, UniProt Q95J86 25-266; Q95J86 267-375, limits assumed)
T3 construct: also called cyno latent myostatin
T3 sequence 1: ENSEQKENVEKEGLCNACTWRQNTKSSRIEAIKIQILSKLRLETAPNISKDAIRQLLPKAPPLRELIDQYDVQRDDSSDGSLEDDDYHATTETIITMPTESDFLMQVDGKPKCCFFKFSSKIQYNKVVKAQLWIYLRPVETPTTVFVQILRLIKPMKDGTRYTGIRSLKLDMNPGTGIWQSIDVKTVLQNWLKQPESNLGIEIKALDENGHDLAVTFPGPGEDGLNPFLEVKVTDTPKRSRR
T3 sequence 2: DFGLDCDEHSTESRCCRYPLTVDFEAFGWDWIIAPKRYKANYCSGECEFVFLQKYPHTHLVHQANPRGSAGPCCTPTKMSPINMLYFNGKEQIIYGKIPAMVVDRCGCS


Tests used:
human latent myostatin [1] = target: T1, human latent myostatin; test: SPR, dissociation phase at pH5.8
human latent myostatin [2] = target: T1, human latent myostatin; test: SPR 37C
mouse latent myostatin [3] = target: T2, mouse latent myostatin; test: SPR 37C
[4] = target: T3, cynomolgus monkey latent myostatin; test: SPR 37C
human latent myostatin [5] = target: T1, human latent myostatin; test: SPR 37C pH7.4; pH 7.4
mouse latent myostatin [6] = target: T2, mouse latent myostatin; test: SPR 37C pH7.4; pH 7.4
[7] = target: T3, cynomolgus monkey latent myostatin; test: SPR 37C pH7.4; pH 7.4
human latent myostatin [8] = target: T1, human latent myostatin; test: SPR 37C pH5.8; pH 5.8
mouse latent myostatin [9] = target: T2, mouse latent myostatin; test: SPR 37C pH5.8; pH 5.8
[10] = target: T3, cynomolgus monkey latent myostatin; test: SPR 37C pH5.8; pH 5.8
[11] = target: T4, human Fc gamma RIIIaV extracellular domain, His-tagged (human, UniProt P08637 17-208); test: SPR 25C
T4 construct: also called FcgRIIIaV
T4 sequence (P08637 17-208 F176V): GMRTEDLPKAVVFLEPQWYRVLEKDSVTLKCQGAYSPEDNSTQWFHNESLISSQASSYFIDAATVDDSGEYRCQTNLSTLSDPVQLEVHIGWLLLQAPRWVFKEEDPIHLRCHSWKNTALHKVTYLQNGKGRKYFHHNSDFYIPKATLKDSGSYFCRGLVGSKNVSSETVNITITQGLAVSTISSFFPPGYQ

| Binder | koff (human latent myostatin [1]) | ratio of KD at pH 5.8/pH7.4 (human latent myostatin [2]) | ratio of KD at pH 5.8/pH7.4 (mouse latent myostatin [3]) | ratio of KD at pH 5.8/pH7.4 [4] | Kd (human latent myostatin [5]) | Kd (mouse latent myostatin [6]) | Kd [7] | Kd (human latent myostatin [8]) | Kd (mouse latent myostatin [9]) | Kd [10] | relative binding [11] |
| --- | --- | --- | --- | --- | --- | --- | --- | --- | --- | --- | --- |
| Ab003 (M103205H009/M103202L000) (antibody, V domains shown, variant of MS1032LO00-SG1) VH: QVTLKESGPVLVKPTETLTLTCTVSGIDLSSYDISWVRQAPGKGLEWVGIISHAGSTYYASWAKGRLTISKDTSKNQVVLTMTNMDPVDTATYYCARGVPAYSTGGDLWGQGTLVTVSS VL: DIVMTQSPATLSLSPGERATLSCQSSQSVYDNNWLSWFQQKPGQPPKLLIYWASTLASGVPSRFSGSGSGTDFTLTISSLQPEDAATYYCAGGYGGGLYAFGQGTKVEIKR | 0.00088 s⁻¹ |  |  |  |  |  |  |  |  |  |  |
| MS_M103240H1246-SG1/M103202L1045-SK1 (antibody, human IgG1, kappa, V domains shown, also called MS1032LO25-SG1) VH: QVQLVESGGGLVQPGGSLRLSCAVSGIDLSHEDISWVRQAPGKGLEWVSIISYAGSKYYASWAKGRLTISKDTSKNQVVLTMTNMDPVDTATYYCARGVPAYSHGGDLWGQGTLVTVSS VL: DIVMTQSPATLSLSPGERATLSCTTSQSVYHENWLSWFQQKPGQPPKLLIYWASTLAYGVPSRFSGSGSGTDFTLTISSLQPEDAATYYCAGGYGGGRYAFGQGTKVEIKR |  | 92 | 38 | 41 | 0.276 nM | 0.259 nM | 0.34 nM | 25.5 nM | 9.88 nM | 14.1 nM |  |
| MS_M103205H1047-SG1/M103202L889-SK1 (antibody, human IgG1, kappa, V domains shown, also called MS1032LO11-SG1) VH: QVTLKESGPVLVKPTETLTLTCTVSGIDLSHTDISWVRQAPGKGLEWVGIISYAGKKYYASWAKGRLTISKDTSKNQVVLTMTNMDPVDTATYYCARGVPAYSHGGDLWGQGTLVTVSS VL: DIVMTQSPATLSLSPGERATLSCTSSQSVYHANWLSWFQQKPGQPPKLLIYWASTLAYGVPSRFSGSGSGTDFTLTISSLQPEDAATYYCAGGYGGGRYAFGQGTKVEIKR |  | 341 | 81 | 87 | 0.419 nM | 0.362 nM | 0.502 nM | 143 nM | 29.2 nM | 43.5 nM |  |
| Ab007 (M103205H028/M103202L008) (antibody, V domains shown, variant of MS1032LO00-SG1) VH: QVTLKESGPVLVKPTETLTLTCTVSGIDLSSYDISWVRQAPGKGLEWVGIISYAGSTYYASWAKGRLTISKDTSKNQVVLTMTNMDPVDTATYYCARGVPAYSHGGDLWGQGTLVTVSS VL: DIVMTQSPATLSLSPGERATLSCQSSQSVYHNNWLSWFQQKPGQPPKLLIYWASTLASGVPSRFSGSGSGTDFTLTISSLQPEDAATYYCAGGYGGGLYAFGQGTKVEIKR | 0.000415 s⁻¹ |  |  |  |  |  |  |  |  |  |  |
| MS_M103245H1233-SG1/M103202L1045-SK1 (antibody, human IgG1, kappa, V domains shown, also called MS1032LO23-SG1) VH: QVTLKESGPVLVKPTETLTLTCKVSGIDLSHEDISWVRQAPGKGLEWVSIISYAGSTYYASWAKGRLTISKDTSKNQVVLTMTNMDPVDTATYYCARGVPAYSHGGDLWGQGTLVTVSS VL: DIVMTQSPATLSLSPGERATLSCTTSQSVYHENWLSWFQQKPGQPPKLLIYWASTLAYGVPSRFSGSGSGTDFTLTISSLQPEDAATYYCAGGYGGGRYAFGQGTKVEIKR |  | 62 | 24 | 26 | 0.26 nM | 0.266 nM | 0.299 nM | 16.1 nM | 6.4 nM | 7.71 nM |  |
| Ab005 (M103205H028/M103202L000) (antibody, V domains shown, variant of MS1032LO00-SG1) VH: QVTLKESGPVLVKPTETLTLTCTVSGIDLSSYDISWVRQAPGKGLEWVGIISYAGSTYYASWAKGRLTISKDTSKNQVVLTMTNMDPVDTATYYCARGVPAYSHGGDLWGQGTLVTVSS VL: DIVMTQSPATLSLSPGERATLSCQSSQSVYDNNWLSWFQQKPGQPPKLLIYWASTLASGVPSRFSGSGSGTDFTLTISSLQPEDAATYYCAGGYGGGLYAFGQGTKVEIKR | 7.63e-05 s⁻¹ |  |  |  |  |  |  |  |  |  |  |
| Ab006 (M103205H000/M103202L008) (antibody, V domains shown, variant of MS1032LO00-SG1) VH: QVTLKESGPVLVKPTETLTLTCTVSGIDLSSYDISWVRQAPGKGLEWVGIISYAGSTYYASWAKGRLTISKDTSKNQVVLTMTNMDPVDTATYYCARGVPAYSTGGDLWGQGTLVTVSS VL: DIVMTQSPATLSLSPGERATLSCQSSQSVYHNNWLSWFQQKPGQPPKLLIYWASTLASGVPSRFSGSGSGTDFTLTISSLQPEDAATYYCAGGYGGGLYAFGQGTKVEIKR | 8.58e-05 s⁻¹ |  |  |  |  |  |  |  |  |  |  |
| Ab004 (M103205H026/M103202L000) (antibody, V domains shown, variant of MS1032LO00-SG1) VH: QVTLKESGPVLVKPTETLTLTCTVSGIDLSSYDISWVRQAPGKGLEWVGIISYAGSTYYASWAKGRLTISKDTSKNQVVLTMTNMDPVDTATYYCARGVPAHSTGGDLWGQGTLVTVSS VL: DIVMTQSPATLSLSPGERATLSCQSSQSVYDNNWLSWFQQKPGQPPKLLIYWASTLASGVPSRFSGSGSGTDFTLTISSLQPEDAATYYCAGGYGGGLYAFGQGTKVEIKR | 0.000186 s⁻¹ |  |  |  |  |  |  |  |  |  |  |
| MS_M103205H1057-SG1/M103202L889-SK1 (antibody, human IgG1, kappa, V domains shown, also called MS1032LO12-SG1) VH: QVTLKESGPVLVKPTETLTLTCTVSGIDLSHTDISWVRQAPGKGLEWVGIISYAGSKYKASWAKGRLTISKDTSKNQVVLTMTNMDPVDTATYYCARGVPAYSHGGDLWGQGTLVTVSS VL: DIVMTQSPATLSLSPGERATLSCTSSQSVYHANWLSWFQQKPGQPPKLLIYWASTLAYGVPSRFSGSGSGTDFTLTISSLQPEDAATYYCAGGYGGGRYAFGQGTKVEIKR |  | 209 | 60 | 73 | 0.407 nM | 0.413 nM | 0.492 nM | 84.9 nM | 24.8 nM | 35.8 nM |  |
| MS_M103245H795-SG1/M103202L1045-SK1 (antibody, human IgG1, kappa, V domains shown, also called MS1032LO21-SG1) VH: QVTLKESGPVLVKPTETLTLTCKVSGIDLSHDDISWVRQAPGKGLEWVSIISYAGSTYYASWAKGRLTISKDTSKNQVVLTMTNMDPVDTATYYCARGVPAYSHGGDLWGQGTLVTVSS VL: DIVMTQSPATLSLSPGERATLSCTTSQSVYHENWLSWFQQKPGQPPKLLIYWASTLAYGVPSRFSGSGSGTDFTLTISSLQPEDAATYYCAGGYGGGRYAFGQGTKVEIKR |  | 204 | 113 | 100 | 0.257 nM | 0.261 nM | 0.309 nM | 52.3 nM | 29.4 nM | 31 nM |  |
| GpH7-B3 G237Y/GpL16-k0 (antibody, human IgG1, kappa, copies: 2 + 2) heavy: not shown light: DIVMTQSPLSLPVTPGEPASISCQASESLVHSNRNTYLHWYLQKPGQSPQLLIYKVSNRFSGVPDRFSGSGSGTDFTLKISRVEAEDVGVYYCSQNTHVPPTFGQGTKVEIERTVAAPSVFIFPPSDEQLKSGTASVVCLLNNFYPREAKVQWKVDNALQSGNSQESVTEQDSKDSTYSLSSTLTLSKADYEKHKVYACEVTHQGLSSPVTKSFNRGEC |  |  |  |  |  |  |  |  |  |  | 0 parent B3=100 |
| MS_M103240H795-SG1/M103202L1045-SK1 (antibody, human IgG1, kappa, also called MS1032LO19-SG1) heavy: not shown light: DIVMTQSPATLSLSPGERATLSCTTSQSVYHENWLSWFQQKPGQPPKLLIYWASTLAYGVPSRFSGSGSGTDFTLTISSLQPEDAATYYCAGGYGGGRYAFGQGTKVEIKRTVAAPSVFIFPPSDEQLKSGTASVVCLLNNFYPREAKVQWKVDNALQSGNSQESVTEQDSKDSTYSLSSTLTLSKADYEKHKVYACEVTHQGLSSPVTKSFNRGEC |  | 168 | 106 | 109 | 0.273 nM | 0.271 nM | 0.326 nM | 45.8 nM | 28.7 nM | 35.6 nM |  |
